Numbering of substitutions follows the chain as printed.
Legend:
Mgal-WhiA [1] = molecular target: T1, Mgal-WhiA (Mycoplasmoides gallisepticum, UniProt A0A0F6CKV5); assay: microscale thermophoresis, Cy5-labelled protein, Hill fit; assay type: binding
T1 construct: E. coli BL21-Gold (DE3); monomer without DNA; Cy5 NHS-ester labelled for ATP MST
T1 sequence (A0A0F6CKV5 1-295): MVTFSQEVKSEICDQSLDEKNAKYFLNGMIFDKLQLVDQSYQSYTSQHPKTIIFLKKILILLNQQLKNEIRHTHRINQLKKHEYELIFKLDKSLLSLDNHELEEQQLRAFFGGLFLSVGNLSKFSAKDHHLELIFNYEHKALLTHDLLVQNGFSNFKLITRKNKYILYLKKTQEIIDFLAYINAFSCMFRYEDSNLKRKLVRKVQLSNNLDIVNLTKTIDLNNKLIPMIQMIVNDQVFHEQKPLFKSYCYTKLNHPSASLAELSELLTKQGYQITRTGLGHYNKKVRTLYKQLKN

Mgal-WhiA [2] = molecular target: T2, Mgal-WhiA (Mycoplasma gallisepticum S6, UniProt A0A0F6CKV5 1-295); assay: FRET; with Q3 core duplex; strong quenching; EMSA: 20 mM carbonate pH 9.8, 6% glycerol, 37 C 10 min, gel at 10 C; MST: PBS (10 mM Na phosphate pH 7.4, 140 mM NaCl, 3 mM KCl), 0.05% Tween-20, 50 mM imidazole, 50 nM duplex, 20 C; conditions: protein: recombinant; label: 5' 6-FAM on strand 1; blunt
Mgal-WhiA [3] = molecular target: T2, Mgal-WhiA; assay: MST; 1 mM ATP; multistep curve, conflicts with EMSA; EMSA: 20 mM carbonate pH 9.8, 6% glycerol, 37 C 10 min, gel at 10 C; MST: PBS (10 mM Na phosphate pH 7.4, 140 mM NaCl, 3 mM KCl), 0.05% Tween-20, 50 mM imidazole, 50 nM duplex, 20 C; conditions: protein: recombinant; label: 5' FAM (EMSA) or HEX (MST) on strand 1; blunt
Mgal-WhiA [4] = molecular target: T2, Mgal-WhiA; assay: EMSA; no ATP; monomer complex; EMSA: 20 mM carbonate pH 9.8, 6% glycerol, 37 C 10 min, gel at 10 C; MST: PBS (10 mM Na phosphate pH 7.4, 140 mM NaCl, 3 mM KCl), 0.05% Tween-20, 50 mM imidazole, 50 nM duplex, 20 C; conditions: protein: recombinant; label: 5' FAM (EMSA) or HEX (MST) on strand 1; blunt
Mgal-WhiA [5] = molecular target: T2, Mgal-WhiA; assay: EMSA; 1 mM ATP; monomer complex; EMSA: 20 mM carbonate pH 9.8, 6% glycerol, 37 C 10 min, gel at 10 C; MST: PBS (10 mM Na phosphate pH 7.4, 140 mM NaCl, 3 mM KCl), 0.05% Tween-20, 50 mM imidazole, 50 nM duplex, 20 C; conditions: protein: recombinant; label: 5' FAM (EMSA) or HEX (MST) on strand 1; blunt
Mgal-WhiA [6] = molecular target: T2, Mgal-WhiA; assay: EMSA; no ATP; total binding; EMSA: 20 mM carbonate pH 9.8, 6% glycerol, 37 C 10 min, gel at 10 C; MST: PBS (10 mM Na phosphate pH 7.4, 140 mM NaCl, 3 mM KCl), 0.05% Tween-20, 50 mM imidazole, 50 nM duplex, 20 C; conditions: protein: recombinant, blunt
Mgal-WhiA [7] = molecular target: T2, Mgal-WhiA; assay: MST; no ATP; Hill n = 1.8 ± 0.2; EMSA: 20 mM carbonate pH 9.8, 6% glycerol, 37 C 10 min, gel at 10 C; MST: PBS (10 mM Na phosphate pH 7.4, 140 mM NaCl, 3 mM KCl), 0.05% Tween-20, 50 mM imidazole, 50 nM duplex, 20 C; conditions: protein: recombinant; label: 5' FAM (EMSA) or HEX (MST) on strand 1; blunt
Mgal-WhiA [8] = molecular target: T2, Mgal-WhiA; assay: EMSA; 1 mM ATP; total binding; unit not printed (nM implied); EMSA: 20 mM carbonate pH 9.8, 6% glycerol, 37 C 10 min, gel at 10 C; MST: PBS (10 mM Na phosphate pH 7.4, 140 mM NaCl, 3 mM KCl), 0.05% Tween-20, 50 mM imidazole, 50 nM duplex, 20 C; conditions: protein: recombinant, blunt
Mgal-WhiA [9] = molecular target: T2, Mgal-WhiA; assay: MST; 1 mM ATP; n = 1; multistep curve; EMSA: 20 mM carbonate pH 9.8, 6% glycerol, 37 C 10 min, gel at 10 C; MST: PBS (10 mM Na phosphate pH 7.4, 140 mM NaCl, 3 mM KCl), 0.05% Tween-20, 50 mM imidazole, 50 nM duplex, 20 C; conditions: protein: recombinant; label: 5' FAM (EMSA) or HEX (MST) on strand 1; blunt
Mgal-WhiA Lys-216 = Mgal-WhiA Lys-216 (Mycoplasma gallisepticum S6, UniProt A0A0F6CKV5 1-295, K217G); assay: MST; EMSA: 20 mM carbonate pH 9.8, 6% glycerol, 37 C 10 min, gel at 10 C; MST: PBS (10 mM Na phosphate pH 7.4, 140 mM NaCl, 3 mM KCl), 0.05% Tween-20, 50 mM imidazole, 50 nM duplex, 20 C; conditions: protein: recombinant; label: 5' FAM (EMSA) or HEX (MST) on strand 1; blunt
Mgal-WhiA Ser-258 = Mgal-WhiA Ser-258 (Mycoplasma gallisepticum S6, UniProt A0A0F6CKV5 1-295, S259G); assay: as above; conditions: protein: recombinant; label: 5' FAM (EMSA) or HEX (MST) on strand 1; blunt
Mgal-WhiA Lys-170 = Mgal-WhiA Lys-170 (Mycoplasma gallisepticum S6, UniProt A0A0F6CKV5 1-295, K171G); assay: EMSA; dimeric complex favoured; EMSA: 20 mM carbonate pH 9.8, 6% glycerol, 37 C 10 min, gel at 10 C; MST: PBS (10 mM Na phosphate pH 7.4, 140 mM NaCl, 3 mM KCl), 0.05% Tween-20, 50 mM imidazole, 50 nM duplex, 20 C; conditions: protein: recombinant; label: 5' FAM (EMSA) or HEX (MST) on strand 1; blunt
Mgal-WhiA [10] = molecular target: T2, Mgal-WhiA; assay: EMSA; monomer complex; printed as without ATP, order probably swapped (1 mM ATP likely); EMSA: 20 mM carbonate pH 9.8, 6% glycerol, 37 C 10 min, gel at 10 C; MST: PBS (10 mM Na phosphate pH 7.4, 140 mM NaCl, 3 mM KCl), 0.05% Tween-20, 50 mM imidazole, 50 nM duplex, 20 C; conditions: protein: recombinant; label: 5' FAM on strand 1; blunt
Mgal-WhiA [11] = molecular target: T2, Mgal-WhiA; assay: EMSA; monomer complex; printed as with ATP, order probably swapped (no ATP likely); EMSA: 20 mM carbonate pH 9.8, 6% glycerol, 37 C 10 min, gel at 10 C; MST: PBS (10 mM Na phosphate pH 7.4, 140 mM NaCl, 3 mM KCl), 0.05% Tween-20, 50 mM imidazole, 50 nM duplex, 20 C; conditions: protein: recombinant; label: 5' FAM on strand 1; blunt
[12] = label: 5' FAM (EMSA) or HEX (MST) on strand 1

## Nc1ncnc2c1ncn2[C@@H]1O[C@H](COP(=O)(O)OP(=O)(O)OP(=O)(O)O)[C@@H](O)[C@H]1O [ATP]
Mgal-WhiA [1]
  Kd: 5 ± 0.1 mM

B1: WhiA-F1 (aux half-site) (dsDNA)
DNA 1: AACCGTTGTCAAGTATC
DNA 2: GATACTTGACAACGGTT
Mgal-WhiA [2]
  binding result: binds

B2: Negative control (plsC promoter) (dsDNA)
DNA 1: AGCGATAAGTTTTACGAATTAAGTCGTTTATTATATAATA
DNA 2: TATTATATAATAAACGACTTAATTCGTAAAACTTATCGCT
Mgal-WhiA [3]
  Kd: 120 ± 50 nM

B3: rpsJ WT (dsDNA)
DNA 1: AAAGATTGCTGATACACCAAAAACCGTTGTCAAGTATCAG
DNA 2: CTGATACTTGACAACGGTTTTTGGTGTATCAGCAATCTTT
Mgal-WhiA [4]
  Kd: 610 ± 100 nM
Mgal-WhiA [5]
  Kd: 240 ± 70 nM
Mgal-WhiA [6]; [12]
  Kd: 700 ± 80 nM
Mgal-WhiA [7]
  Kd: 700 ± 100 nM
Mgal-WhiA [8]; [12]
  Kd: 680 ± 90 nM
Mgal-WhiA [9]
  Kd: 88 ± 12 nM
Mgal-WhiA Lys-216
  Kd: 1700 ± 100 nM
Mgal-WhiA Ser-258
  Kd: 2600 ± 200 nM
Mgal-WhiA Lys-170
  binding result: binds

B4: Mut1 (dsDNA)
DNA 1: B3 DNA 1 with G26A, T27G, T28A, G29C
DNA 2: B3 DNA 2 with C12G, A13T, A14C, C15T
Mgal-WhiA [10]
  Kd: 290 ± 180 nM
Mgal-WhiA [6]; label: 5' FAM on strand 1
  Kd: 750 ± 30 nM
Mgal-WhiA [8]; label: 5' FAM on strand 1
  Kd: 430 ± 90 nM
Mgal-WhiA [11]
  Kd: 850 ± 130 nM
